Data reported in patent US20100120171A1.

Legend:
[1] = target: Standard VE-cadherin (standard solutions run with the Bender MedSystems BMS253 kit) (UniProt P33151); test: Bender BMS253 ELISA kit; standard VE-cadherin at 0.32 ng/mL; OD minus OD at 0 ng/mL
[2] = target: Standard VE-cadherin (standard solutions run with the Bender MedSystems BMS253 kit) (UniProt P33151); test: Bender BMS253 ELISA kit; standard VE-cadherin at 2.5 ng/mL; first replicate
[3] = target: Standard VE-cadherin (standard solutions run with the Bender MedSystems BMS253 kit) (UniProt P33151); test: Bender BMS253 ELISA kit; standard VE-cadherin at 2.5 ng/mL; second replicate
[4] = target: Standard VE-cadherin (standard solutions run with the Bender MedSystems BMS253 kit) (UniProt P33151); test: Bender BMS253 ELISA kit; standard VE-cadherin at 0.63 ng/mL; first replicate
[5] = target: Standard VE-cadherin (standard solutions run with the Bender MedSystems BMS253 kit) (UniProt P33151); test: Bender BMS253 ELISA kit; standard VE-cadherin at 5 ng/mL; first replicate
[6] = target: Standard VE-cadherin (standard solutions run with the Bender MedSystems BMS253 kit) (UniProt P33151); test: Bender BMS253 ELISA kit; standard VE-cadherin at 5 ng/mL; second replicate
[7] = target: Standard VE-cadherin (standard solutions run with the Bender MedSystems BMS253 kit) (UniProt P33151); test: Bender BMS253 ELISA kit; standard VE-cadherin at 1.25 ng/mL; OD minus OD at 0 ng/mL
[8] = target: Standard VE-cadherin (standard solutions run with the Bender MedSystems BMS253 kit) (UniProt P33151); test: Bender BMS253 ELISA kit; standard VE-cadherin at 0.32 ng/mL
[9] = target: Standard VE-cadherin (standard solutions run with the Bender MedSystems BMS253 kit) (UniProt P33151); test: Bender BMS253 ELISA kit; standard VE-cadherin at 0.63 ng/mL; second replicate
[10] = target: Standard VE-cadherin (standard solutions run with the Bender MedSystems BMS253 kit) (UniProt P33151); test: Bender BMS253 ELISA kit; standard VE-cadherin at 0.63 ng/mL; OD minus OD at 0 ng/mL
[11] = target: Standard VE-cadherin (standard solutions run with the Bender MedSystems BMS253 kit) (UniProt P33151); test: Bender BMS253 ELISA kit; standard VE-cadherin at 0.32 ng/mL; first replicate
[12] = target: Standard VE-cadherin (standard solutions run with the Bender MedSystems BMS253 kit) (UniProt P33151); test: Bender BMS253 ELISA kit; standard VE-cadherin at 2.5 ng/mL; OD minus OD at 0 ng/mL
[13] = target: Standard VE-cadherin (standard solutions run with the Bender MedSystems BMS253 kit) (UniProt P33151); test: Bender BMS253 ELISA kit; standard VE-cadherin at 1.25 ng/mL; first replicate
[14] = target: Standard VE-cadherin (standard solutions run with the Bender MedSystems BMS253 kit) (UniProt P33151); test: Bender BMS253 ELISA kit; standard VE-cadherin at 0.16 ng/mL; second replicate
[15] = target: Standard VE-cadherin (standard solutions run with the Bender MedSystems BMS253 kit) (UniProt P33151); test: Bender BMS253 ELISA kit; standard VE-cadherin at 0.32 ng/mL; second replicate
[16] = target: Standard VE-cadherin (standard solutions run with the Bender MedSystems BMS253 kit) (UniProt P33151); test: Bender BMS253 ELISA kit; standard VE-cadherin at 10 ng/mL
[17] = target: Standard VE-cadherin (standard solutions run with the Bender MedSystems BMS253 kit) (UniProt P33151); test: Bender BMS253 ELISA kit; standard VE-cadherin at 0.16 ng/mL
[18] = target: Standard VE-cadherin (standard solutions run with the Bender MedSystems BMS253 kit) (UniProt P33151); test: Bender BMS253 ELISA kit; standard VE-cadherin at 0.16 ng/mL; first replicate
[19] = target: Standard VE-cadherin (standard solutions run with the Bender MedSystems BMS253 kit) (UniProt P33151); test: Bender BMS253 ELISA kit; standard VE-cadherin at 1.25 ng/mL; second replicate
[20] = target: Standard VE-cadherin (standard solutions run with the Bender MedSystems BMS253 kit) (UniProt P33151); test: Bender BMS253 ELISA kit; standard VE-cadherin at 10 ng/mL; second replicate
[21] = target: Standard VE-cadherin (standard solutions run with the Bender MedSystems BMS253 kit) (UniProt P33151); test: Bender BMS253 ELISA kit; standard VE-cadherin at 1.25 ng/mL
[22] = target: Standard VE-cadherin (standard solutions run with the Bender MedSystems BMS253 kit) (UniProt P33151); test: Bender BMS253 ELISA kit; standard VE-cadherin at 2.5 ng/mL
[23] = target: Standard VE-cadherin (standard solutions run with the Bender MedSystems BMS253 kit) (UniProt P33151); test: Bender BMS253 ELISA kit; standard VE-cadherin at 5 ng/mL
[24] = target: Standard VE-cadherin (standard solutions run with the Bender MedSystems BMS253 kit) (UniProt P33151); test: Bender BMS253 ELISA kit; standard VE-cadherin at 0.63 ng/mL
[25] = target: Standard VE-cadherin (standard solutions run with the Bender MedSystems BMS253 kit) (UniProt P33151); test: Bender BMS253 ELISA kit; standard VE-cadherin at 5 ng/mL; OD minus OD at 0 ng/mL
[26] = target: Standard VE-cadherin (standard solutions run with the Bender MedSystems BMS253 kit) (UniProt P33151); test: Bender BMS253 ELISA kit; standard VE-cadherin at 0.16 ng/mL; OD minus OD at 0 ng/mL
[27] = target: Standard VE-cadherin (standard solutions run with the Bender MedSystems BMS253 kit) (UniProt P33151); test: Bender BMS253 ELISA kit; standard VE-cadherin at 10 ng/mL; first replicate
[28] = target: Standard VE-cadherin (standard solutions run with the Bender MedSystems BMS253 kit) (UniProt P33151); test: Bender BMS253 ELISA kit; standard VE-cadherin at 10 ng/mL; OD minus OD at 0 ng/mL

Sequence of UniProt P33151 (P33151 48-593 limits assumed): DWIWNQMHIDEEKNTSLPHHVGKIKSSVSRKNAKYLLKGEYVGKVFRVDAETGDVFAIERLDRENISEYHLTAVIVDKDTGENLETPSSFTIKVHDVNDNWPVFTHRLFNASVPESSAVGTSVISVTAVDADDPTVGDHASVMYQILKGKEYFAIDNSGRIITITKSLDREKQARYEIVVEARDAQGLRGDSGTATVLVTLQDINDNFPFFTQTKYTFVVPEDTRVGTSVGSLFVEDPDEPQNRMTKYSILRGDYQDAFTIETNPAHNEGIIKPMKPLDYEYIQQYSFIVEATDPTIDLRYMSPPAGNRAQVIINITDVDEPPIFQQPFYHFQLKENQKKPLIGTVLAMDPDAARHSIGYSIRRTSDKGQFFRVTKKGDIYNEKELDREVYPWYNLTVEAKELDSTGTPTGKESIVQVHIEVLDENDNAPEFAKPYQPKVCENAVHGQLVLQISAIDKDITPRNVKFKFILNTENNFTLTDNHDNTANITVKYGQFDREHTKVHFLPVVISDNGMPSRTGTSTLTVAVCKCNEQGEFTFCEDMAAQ

Substance: mAb provided in the human soluble VE-cadherin ELISA kit (Bender MedSystems, reference BMS253) (antibody)
- corr. mean (OD) [1]: 0.112 OD
- OD [2]: 0.61 OD
- OD [3]: 0.621 OD
- OD [4]: 0.265 OD
- OD [5]: 1.29 OD
- OD [6]: 1.05 OD
- corr. mean (OD) [7]: 0.305 OD
- mean OD [8]: 0.22 OD
- OD [9]: 0.222 OD
- corr. mean (OD) [10]: 0.136 OD
- OD [11]: 0.258 OD
- corr. mean (OD) [12]: 0.508 OD
- OD [13]: 0.371 OD
- OD [14]: 0.162 OD
- OD [15]: 0.181 OD
- mean OD [16]: 2.63 OD
- mean OD [17]: 0.154 OD
- OD [18]: 0.145 OD
- OD [19]: 0.454 OD
- OD [20]: 2.85 OD
- mean OD [21]: 0.413 OD
- mean OD [22]: 0.616 OD
- mean OD [23]: 1.17 OD
- mean OD [24]: 0.244 OD
- corr. mean (OD) [25]: 1.06 OD
- corr. mean (OD) [26]: 0.046 OD
- OD [27]: 2.41 OD
- corr. mean (OD) [28]: 2.52 OD
